Experimental data reported in IntAct's records for PubMed 31515488.

B1: Zinc finger protein 473 (Homo sapiens), Q8WTR7 (parent)
chain: MAEEFVTLKDVGMDFTLGDWEQLGLEQGDTFWDTALDNCQDLFLLDPPRPNLTSHPDGSEDLEPLAGGSPEATSPDVTETKNSPLMEDFFEEGFSQEIIEMLSKDGFWNSNFGEACIEDTWLDSLLGDPESLLRSDIATNGESPTECKSHELKRGLSPVSTVSTGEDSMVHNVSEKTLTPAKSKEYRGEFFSYSDHSQQDSVQEGEKPYQCSECGKSFSGSYRLTQHWITHTREKPTVHQECEQGFDRNASLSVYPKTHTGYKFYVCNEYGTTFSQSTYLWHQKTHTGEKPCKSQDSDHPPSHDTQPGEHQKTHTDSKSYNCNECGKAFTRIFHLTRHQKIHTRKRYECSKCQATFNLRKHLIQHQKTHAAKTTSECQECGKIFRHSSLLIEHQALHAGEEPYKCNERGKSFRHNSTLKIHQRVHSGEKPYKCSECGKAFHRHTHLNEHRRIHTGYRPHKCQECVRSFSRPSHLMRHQAIHTAEKPYSCAECKETFSDNNRLVQHQKMHTVKTPYECQECGERFICGSTLKCHESVHAREKQGFFVSGKILDQNPEQKEKCFKCNKCEKTFSCSKYLTQHERIHTRGVKPFECDQCGKAFGQSTRLIHHQRIHSRVRLYKWGEQGKAISSASLIKLQSFHTKEHPFKCNECGKTFSHSAHLSKHQLIHAGENPFKCSKCDRVFTQRNYLVQHERTHARKKPLVCNECGKTFRQSSCLSKHQRIHSGEKPYVCDYCGKAFGLSAELVRHQRIHTGEKPYVCQECGKAFTQSSCLSIHRRVHTGEKPYRCGECGKAFAQKANLTQHQRIHTGEKPYSCNVCGKAFVLSAHLNQHLRVHTQETLYQCQRCQKAFRCHSSLSRHQRVHNKQQYCL
B2: Chondroitin sulfate N-acetylgalactosaminyltransferase 2 (Homo sapiens), Q8N6G5 (parent)
chain: MPRRGLILHTRTHWLLLGLALLCSLVLFMYLLECAPQTDGNASLPGVVGENYGKEYYQALLQEQEEHYQTRATSLKRQIAQLKQELQEMSEKMRSLQERRNVGANGIGYQSNKEQAPSDLLEFLHSQIDKAEVSIGAKLPSEYGVIPFESFTLMKVFQLEMGLTRHPEEKPVRKDKRDELVEVIEAGLEVINNPDEDDEQEDEEGPLGEKLIFNENDFVEGYYRTERDKGTQYELFFKKADLTEYRHVTLFRPFGPLMKVKSEMIDITRSIINIIVPLAERTEAFVQFMQNFRDVCIHQDKKIHLTVVYFGKEGLSKVKSILESVTSESNFHNYTLVSLNEEFNRGRGLNVGARAWDKGEVLMFFCDVDIYFSAEFLNSCRLNAEPGKKVFYPVVFSLYNPAIVYANQEVPPPVEQQLVHKKDSGFWRDFGFGMTCQYRSDFLTIGGFDMEVKGWGGEDVHLYRKYLHGDLIVIRTPVPGLFHLWHEKRCADELTPEQYRMCIQSKAMNEASHSHLGMLVFREEIETHLHKQAYRTNSEAVG
partner: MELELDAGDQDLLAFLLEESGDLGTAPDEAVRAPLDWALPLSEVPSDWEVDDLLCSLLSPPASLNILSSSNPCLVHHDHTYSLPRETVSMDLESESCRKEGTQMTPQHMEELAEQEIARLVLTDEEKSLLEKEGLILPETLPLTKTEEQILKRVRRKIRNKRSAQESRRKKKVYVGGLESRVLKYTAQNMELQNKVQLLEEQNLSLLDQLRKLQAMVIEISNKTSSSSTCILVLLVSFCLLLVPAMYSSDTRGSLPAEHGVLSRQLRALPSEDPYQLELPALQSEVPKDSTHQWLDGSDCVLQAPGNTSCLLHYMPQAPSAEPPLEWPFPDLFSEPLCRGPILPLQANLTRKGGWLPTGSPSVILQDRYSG
B3: Isoform 1 of Mothers against decapentaplegic homolog 3 (Homo sapiens), P84022-1 (parent)
chain: MSSILPFTPPIVKRLLGWKKGEQNGQEEKWCEKAVKSLVKKLKKTGQLDELEKAITTQNVNTKCITIPRSLDGRLQVSHRKGLPHVIYCRLWRWPDLHSHHELRAMELCEFAFNMKKDEVCVNPYHYQRVETPVLPPVLVPRHTEIPAEFPPLDDYSHSIPENTNFPAGIEPQSNIPETPPPGYLSEDGETSDHQMNHSMDAGSPNLSPNPMSPAHNNLDLQPVTYCEPAFWCSISYYELNQRVGETFHASQPSMTVDGFTDPSNSERFCLGLLSNVNRNAAVELTRRHIGRGVRLYYIGGEVFAECLSDSAIFVQSPNCNQRYGWHPATVCKIPPGCNLKIFNNQEFAALLAQSVNQGFEAVYQLTRMCTIRMSFVKGWGAEYRRQTVTSTPCWIELHLNGPLQWLDKVLTQMGSPSIRCSSVS
B4: Circadian locomoter output cycles protein kaput (Homo sapiens), O15516 (parent)
chain: MLFTVSCSKMSSIVDRDDSSIFDGLVEEDDKDKAKRVSRNKSEKKRRDQFNVLIKELGSMLPGNARKMDKSTVLQKSIDFLRKHKEITAQSDASEIRQDWKPTFLSNEEFTQLMLEALDGFFLAIMTDGSIIYVSESVTSLLEHLPSDLVDQSIFNFIPEGEHSEVYKILSTHLLESDSLTPEYLKSKNQLEFCCHMLRGTIDPKEPSTYEYVKFIGNFKSLNSVSSSAHNGFEGTIQRTHRPSYEDRVCFVATVRLATPQFIKEMCTVEEPNEEFTSRHSLEWKFLFLDHRAPPIIGYLPFEVLGTSGYDYYHVDDLENLAKCHEHLMQYGKGKSCYYRFLTKGQQWIWLQTHYYITYHQWNSRPEFIVCTHTVVSYAEVRAERRRELGIEESLPETAADKSQDSGSDNRINTVSLKEALERFDHSPTPSASSRSSRKSSHTAVSDPSSTPTKIPTDTSTPPRQHLPAHEKMVQRRSSFSSQSINSQSVGSSLTQPVMSQATNLPIPQGMSQFQFSAQLGAMQHLKDQLEQRTRMIEANIHRQQEELRKIQEQLQMVHGQGLQMFLQQSNPGLNFGSVQLSSGNSSNIQQLAPINMQGQVVPTNQIQSGMNTGHIGTTQHMIQQQTLQSTSTQSQQNVLSGHSQQTSLPSQTQSTLTAPLYNTMVISQPAAGSMVQIPSSMPQNSTQSAAVTTFTQDRQIRFSQGQQLVTKLVTAPVACGAVMVPSTMLMGQVVTAYPTFATQQQQSQTLSVTQQQQQQSSQEQQLTSVQQPSQAQLTQPPQQFLQTSRLLHGNPSTQLILSAAFPLQQSTFPQSHHQQHQSQQQQQLSRHRTDSLPDPSKVQPQ

Variants of: B1
Details: with gpt2l_human GPATCH2L

effect of a mutation on the interaction	Variant
with no effect	S535N
with no effect	E309G
with no effect	R223C
with no effect	S662A

Variants of: B1
Details: with zn792_human ZNF792, Q3KQV3
Chain of zn792_human ZNF792, Q3KQV3 (Q3KQV3 whole entry): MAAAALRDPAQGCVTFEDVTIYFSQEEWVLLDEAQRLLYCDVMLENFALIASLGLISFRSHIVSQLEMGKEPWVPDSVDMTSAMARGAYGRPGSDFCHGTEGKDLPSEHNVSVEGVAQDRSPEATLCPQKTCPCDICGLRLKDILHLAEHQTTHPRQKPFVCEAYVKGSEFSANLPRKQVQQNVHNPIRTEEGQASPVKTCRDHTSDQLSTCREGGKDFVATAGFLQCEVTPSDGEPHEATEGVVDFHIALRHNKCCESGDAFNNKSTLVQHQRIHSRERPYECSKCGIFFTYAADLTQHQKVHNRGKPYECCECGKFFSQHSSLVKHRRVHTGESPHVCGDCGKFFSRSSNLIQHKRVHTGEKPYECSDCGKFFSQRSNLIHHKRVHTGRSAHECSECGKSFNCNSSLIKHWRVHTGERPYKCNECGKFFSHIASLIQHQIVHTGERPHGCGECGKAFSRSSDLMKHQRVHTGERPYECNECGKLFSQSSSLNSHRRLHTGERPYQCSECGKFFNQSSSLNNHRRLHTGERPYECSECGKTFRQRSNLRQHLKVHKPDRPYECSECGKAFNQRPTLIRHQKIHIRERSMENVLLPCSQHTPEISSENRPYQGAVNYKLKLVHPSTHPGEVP

effect of a mutation on the interaction	Variant
with no effect	S535N
with no effect	N82S
with no effect	E309G
with no effect	R223C
with no effect	S662A

Variants of: B1
Details: with tri41_human TRIM41, Q8WV44

effect of a mutation on the interaction	Variant
with no effect	S535N
with no effect	N82S
with no effect	E309G
with no effect	R223C
with no effect	S662A

Variants of: B1
Details: with aen_human AEN

effect of a mutation on the interaction	Variant
with no effect	S535N
with no effect	N82S
with no effect	E309G
with no effect	R223C
with no effect	S662A

Variants of: B2
Details: with creb3_human CREB3, O43889

effect of a mutation on the interaction	Variant
with no effect	P479S

Variants of: B3
Details: with smad4_human SMAD4, Q13485
Chain of smad4_human SMAD4, Q13485 (Q13485 whole entry): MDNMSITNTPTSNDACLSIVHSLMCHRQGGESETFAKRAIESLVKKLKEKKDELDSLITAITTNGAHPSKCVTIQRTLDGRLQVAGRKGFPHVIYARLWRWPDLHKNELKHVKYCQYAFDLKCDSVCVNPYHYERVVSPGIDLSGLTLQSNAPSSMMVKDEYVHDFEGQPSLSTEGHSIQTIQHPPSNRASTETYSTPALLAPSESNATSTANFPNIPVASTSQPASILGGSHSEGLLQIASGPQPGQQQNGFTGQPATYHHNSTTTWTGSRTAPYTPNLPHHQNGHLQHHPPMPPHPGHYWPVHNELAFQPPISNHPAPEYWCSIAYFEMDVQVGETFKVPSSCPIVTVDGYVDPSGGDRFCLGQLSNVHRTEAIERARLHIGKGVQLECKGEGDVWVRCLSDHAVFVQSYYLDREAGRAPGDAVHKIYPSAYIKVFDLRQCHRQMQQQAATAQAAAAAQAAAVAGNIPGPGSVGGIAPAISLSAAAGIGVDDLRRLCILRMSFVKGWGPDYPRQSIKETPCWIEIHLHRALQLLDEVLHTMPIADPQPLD

effect of a mutation on the interaction	Variant
with no effect	P393L

Variants of: B3
Details: with smad4_human SMAD4, Q13485
Remark: another data set of the same source

effect of a mutation on the interaction	Variant
with no effect	I170V

Variants of: B3
Details: with ccd33_human CCDC33, Q8N5R6
Chain of ccd33_human CCDC33, Q8N5R6 (Q8N5R6 whole entry): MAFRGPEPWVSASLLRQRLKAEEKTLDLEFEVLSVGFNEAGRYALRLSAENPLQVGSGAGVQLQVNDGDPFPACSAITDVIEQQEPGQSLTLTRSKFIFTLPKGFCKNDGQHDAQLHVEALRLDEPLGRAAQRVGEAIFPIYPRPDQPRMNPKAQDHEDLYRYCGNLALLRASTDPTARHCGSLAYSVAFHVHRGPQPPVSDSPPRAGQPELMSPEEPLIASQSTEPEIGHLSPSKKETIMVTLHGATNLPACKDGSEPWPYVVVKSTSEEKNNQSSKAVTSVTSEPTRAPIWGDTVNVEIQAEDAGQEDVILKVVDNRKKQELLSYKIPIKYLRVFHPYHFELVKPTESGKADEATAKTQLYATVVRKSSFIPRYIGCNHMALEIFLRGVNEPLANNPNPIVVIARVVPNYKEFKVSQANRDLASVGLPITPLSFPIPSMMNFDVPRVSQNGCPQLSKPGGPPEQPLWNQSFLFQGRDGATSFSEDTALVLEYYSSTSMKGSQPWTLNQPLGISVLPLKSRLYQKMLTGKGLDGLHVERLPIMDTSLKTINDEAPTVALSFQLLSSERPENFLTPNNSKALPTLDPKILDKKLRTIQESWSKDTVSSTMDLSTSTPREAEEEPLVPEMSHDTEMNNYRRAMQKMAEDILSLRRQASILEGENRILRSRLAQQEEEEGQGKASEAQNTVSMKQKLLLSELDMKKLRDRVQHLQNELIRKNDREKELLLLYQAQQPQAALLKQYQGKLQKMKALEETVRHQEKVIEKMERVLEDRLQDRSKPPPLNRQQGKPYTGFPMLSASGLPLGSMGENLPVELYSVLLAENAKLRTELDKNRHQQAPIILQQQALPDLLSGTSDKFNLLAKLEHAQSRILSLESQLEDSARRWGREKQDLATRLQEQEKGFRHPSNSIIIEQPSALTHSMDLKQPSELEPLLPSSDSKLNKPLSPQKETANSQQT

effect of a mutation on the interaction	Variant
with no effect	I170V

Variants of: B4
Details: with bmal1_human BMAL1, O00327
Chain of bmal1_human BMAL1, O00327 (O00327 whole entry): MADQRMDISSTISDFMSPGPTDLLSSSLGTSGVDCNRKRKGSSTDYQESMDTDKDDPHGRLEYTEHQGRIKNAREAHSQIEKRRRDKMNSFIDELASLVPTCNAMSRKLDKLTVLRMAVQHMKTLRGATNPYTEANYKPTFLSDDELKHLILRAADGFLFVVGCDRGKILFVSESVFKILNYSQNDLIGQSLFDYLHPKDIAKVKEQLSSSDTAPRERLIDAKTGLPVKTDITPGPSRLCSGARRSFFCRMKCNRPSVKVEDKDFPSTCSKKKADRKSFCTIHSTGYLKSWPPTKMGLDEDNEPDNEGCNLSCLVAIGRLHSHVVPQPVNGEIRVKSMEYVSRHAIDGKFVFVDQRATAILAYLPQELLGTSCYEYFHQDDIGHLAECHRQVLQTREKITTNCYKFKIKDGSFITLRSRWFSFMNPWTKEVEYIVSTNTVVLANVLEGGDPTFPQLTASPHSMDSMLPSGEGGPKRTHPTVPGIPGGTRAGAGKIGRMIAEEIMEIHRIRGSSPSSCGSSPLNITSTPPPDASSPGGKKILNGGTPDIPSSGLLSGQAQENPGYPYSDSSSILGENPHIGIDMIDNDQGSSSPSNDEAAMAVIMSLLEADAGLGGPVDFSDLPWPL

effect of a mutation on the interaction	Variant
with no effect	L395I
with no effect	G235E
